Legend:
HeLa Kyoto [1] = experiment: solubility in G1/S (NP-40 vs SDS abundance) (log2 ratio); higher = more soluble; conditions: cell cycle stage: G1/S
HeLa Kyoto [2] = experiment: melting temperature (median over replicates), in situ; higher = more thermally stable
HeLa Kyoto [3] = experiment: solubility change mitosis vs G1/S (difference of NP-40 vs SDS log2 ratios) (log2 ratio difference); higher = more soluble in mitosis
HeLa Kyoto [4] = experiment: thermal stability score vs G1/S (z-score of summed log2 fold changes over temperatures); higher = more thermally stable than in G1/S
[5] = cell cycle stage: early G1 (4.5 h after nocodazole release)
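Throughout, for melting temperature (median over replicates), in situ: HeLa Kyoto cells synchronized by double thymidine or nocodazole block, proteins quantified by TMT10plex mass spectrometry, three independent biological replicates.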
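Throughout, for solubility change mitosis vs G1/S (difference of NP-40 vs SDS log2 ratios): synchronized HeLa Kyoto cells (double thymidine block for G1/S, nocodazole release for mitosis), protein amounts in NP-40 versus SDS lysates quantified by mass spectrometry, three biological replicates.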
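Throughout, for solubility in G1/S (NP-40 vs SDS abundance): HeLa Kyoto cells arrested at G1/S by double thymidine block, proteins quantified by TMT10plex mass spectrometry in mild NP-40 versus SDS extracts, three biological replicates.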
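Throughout, for thermal stability score vs G1/S (z-score of summed log2 fold changes over temperatures): synchronized HeLa Kyoto cells, proteins quantified by TMT10plex mass spectrometry, three biological replicates, mitosis taken 0.5 h after nocodazole release, G1/S directly after double thymidine block.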

Sequence of HAUS7 (chain, as listed by the source): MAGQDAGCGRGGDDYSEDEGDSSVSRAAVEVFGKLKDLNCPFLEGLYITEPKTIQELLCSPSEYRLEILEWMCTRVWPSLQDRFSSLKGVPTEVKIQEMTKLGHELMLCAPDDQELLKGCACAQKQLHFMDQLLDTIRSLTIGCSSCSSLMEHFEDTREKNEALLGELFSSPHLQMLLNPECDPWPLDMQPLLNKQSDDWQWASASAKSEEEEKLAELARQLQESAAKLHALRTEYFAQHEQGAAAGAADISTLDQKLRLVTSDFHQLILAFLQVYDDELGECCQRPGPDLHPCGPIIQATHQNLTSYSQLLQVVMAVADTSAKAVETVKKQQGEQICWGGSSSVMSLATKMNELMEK
Sequence of WWP2 (chain, as listed by the source): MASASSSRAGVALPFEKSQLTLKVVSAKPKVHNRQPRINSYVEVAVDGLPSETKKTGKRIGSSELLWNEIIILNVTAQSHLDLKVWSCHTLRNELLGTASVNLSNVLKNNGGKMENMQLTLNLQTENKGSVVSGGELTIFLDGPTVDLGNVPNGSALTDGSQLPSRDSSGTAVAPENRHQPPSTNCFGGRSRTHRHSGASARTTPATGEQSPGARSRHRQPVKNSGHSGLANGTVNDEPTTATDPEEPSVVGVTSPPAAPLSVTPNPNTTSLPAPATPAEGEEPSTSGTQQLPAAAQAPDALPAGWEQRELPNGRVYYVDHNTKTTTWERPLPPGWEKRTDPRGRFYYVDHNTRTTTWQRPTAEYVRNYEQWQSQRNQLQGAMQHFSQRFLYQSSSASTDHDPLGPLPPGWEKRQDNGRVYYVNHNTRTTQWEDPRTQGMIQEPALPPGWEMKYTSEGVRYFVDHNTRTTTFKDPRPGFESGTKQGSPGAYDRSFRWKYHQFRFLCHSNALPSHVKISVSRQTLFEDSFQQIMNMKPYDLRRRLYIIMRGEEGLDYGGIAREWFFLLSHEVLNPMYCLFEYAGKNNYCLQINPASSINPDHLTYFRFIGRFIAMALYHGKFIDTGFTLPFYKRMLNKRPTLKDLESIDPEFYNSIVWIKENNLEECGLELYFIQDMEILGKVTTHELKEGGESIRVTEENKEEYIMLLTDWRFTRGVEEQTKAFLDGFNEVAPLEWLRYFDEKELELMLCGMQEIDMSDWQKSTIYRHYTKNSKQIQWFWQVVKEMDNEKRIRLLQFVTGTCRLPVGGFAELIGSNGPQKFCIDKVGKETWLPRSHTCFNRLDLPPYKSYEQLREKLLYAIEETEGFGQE
Sequence of SOX13 (chain, as listed by the source): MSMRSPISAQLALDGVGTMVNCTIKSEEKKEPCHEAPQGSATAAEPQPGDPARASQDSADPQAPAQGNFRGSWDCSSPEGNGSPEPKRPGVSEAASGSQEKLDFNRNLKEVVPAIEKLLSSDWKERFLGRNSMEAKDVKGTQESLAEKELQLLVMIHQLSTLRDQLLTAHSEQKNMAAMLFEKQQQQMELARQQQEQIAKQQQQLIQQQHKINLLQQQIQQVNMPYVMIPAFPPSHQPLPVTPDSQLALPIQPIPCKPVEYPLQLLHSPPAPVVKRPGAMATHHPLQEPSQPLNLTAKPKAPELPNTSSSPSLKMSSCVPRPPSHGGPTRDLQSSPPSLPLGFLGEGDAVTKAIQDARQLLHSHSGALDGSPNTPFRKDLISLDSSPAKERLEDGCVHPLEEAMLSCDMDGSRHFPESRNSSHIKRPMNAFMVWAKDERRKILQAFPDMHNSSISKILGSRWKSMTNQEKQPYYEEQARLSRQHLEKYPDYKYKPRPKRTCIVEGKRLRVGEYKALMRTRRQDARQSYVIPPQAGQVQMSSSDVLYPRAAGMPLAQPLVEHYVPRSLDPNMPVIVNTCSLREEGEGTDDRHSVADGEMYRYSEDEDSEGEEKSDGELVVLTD
Sequence of IRF2BPL (chain, as listed by the source): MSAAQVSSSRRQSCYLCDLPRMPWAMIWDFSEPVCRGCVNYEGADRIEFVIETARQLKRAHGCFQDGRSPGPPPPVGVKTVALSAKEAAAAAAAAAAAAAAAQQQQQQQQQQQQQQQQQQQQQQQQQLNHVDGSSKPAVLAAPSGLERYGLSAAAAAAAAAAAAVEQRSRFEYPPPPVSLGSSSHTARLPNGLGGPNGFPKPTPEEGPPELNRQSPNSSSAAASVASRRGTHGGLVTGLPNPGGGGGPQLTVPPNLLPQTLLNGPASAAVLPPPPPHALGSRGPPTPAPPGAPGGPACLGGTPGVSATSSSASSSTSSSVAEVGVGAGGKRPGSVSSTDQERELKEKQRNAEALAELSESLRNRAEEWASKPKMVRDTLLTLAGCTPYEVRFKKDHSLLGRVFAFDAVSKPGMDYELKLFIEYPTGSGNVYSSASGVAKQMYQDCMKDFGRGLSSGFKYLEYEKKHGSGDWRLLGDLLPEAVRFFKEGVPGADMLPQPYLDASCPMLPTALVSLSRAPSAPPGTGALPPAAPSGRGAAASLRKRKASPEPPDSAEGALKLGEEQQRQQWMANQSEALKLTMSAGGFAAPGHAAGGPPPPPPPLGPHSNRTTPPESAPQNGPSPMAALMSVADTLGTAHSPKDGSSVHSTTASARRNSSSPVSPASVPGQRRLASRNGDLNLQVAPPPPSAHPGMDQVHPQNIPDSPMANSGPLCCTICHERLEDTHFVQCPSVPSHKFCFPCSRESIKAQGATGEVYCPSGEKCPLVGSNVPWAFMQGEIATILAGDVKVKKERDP

Row | Substance | solubility in G1/S (log2) (HeLa Kyoto [1]) | melting temperature (HeLa Kyoto [2]; cell cycle stage: G1/S) | melting temperature (HeLa Kyoto [2]; cell cycle stage: mitosis) | solubility change mitosis (log2) (HeLa Kyoto [3]) | thermal stability score (HeLa Kyoto [4]; [5]) | thermal stability score (HeLa Kyoto [4]; cell cycle stage: mitosis)
1 | BAZ2A | -0.382 | 48.3 °C | 49.6 °C | 0.217 | – | –
2 | DLG5 | -0.385 | – | 47.5 °C | 0.289 | – | –
3 | HAUS7 | 0.51 | 50.7 °C | – | -0.0535 | – | –
4 | IRF2BPL | 0.519 | 50 °C | 50.9 °C | -0.131 | – | –
5 | KANSL3 | 0.155 | – | 48.6 °C | 0.061 | – | –
6 | MAAAAPNAGGSAPETAGSAEAPLQYSLLLQYLVGDKRQPRLLEPGSLGGIPSPAKSEEQKMIEKAMESCAFKAALACVGGFVLGGAFGVFTAGIDTNVGFDPKDPYRTPTAKEVLKDMGQRGMSYAKNFAIVGAMFSCTECLIESYRGTSDWKNSVISGCITGGAIGFRAGLKAGAIGCGGFAAFSAAIDYYLR [TIMM22] | 0.0827 | 56 °C | 56.3 °C | -0.0464 | – | –
7 | MAAATIVHDTSEAVELCPAYGLYLKPITKMTISVALPQLKQPGKSISNWEVMERLKGMVQNHQFSTLRISKSTMDFIRFEGEVENKSLVKSFLACLDGKTIKLSGFSDILKVRAAEFKIDFPTRHDWDSFFRDAKDMNETLPGERPDTIHLEGLPCKWFALKESGSEKPSEDVLVKVFEKFGEIRNVDIPMLDPYREEMTGRNFHTFSFGGHLNFEAYVQYREYMGFIQAMSALRGMKLMYKGEDGKAVACNIKVSFDSTKHLSDASIKKRQLERQKLQELEQQREEQKRREKEAEERQRAEERKQKELEELERERKREEKLRKREQKQRDRELRRNQKKLEKLQAEEQKQLQEKIKLEERKLLLAQRNLQSIRLIAELLSRAKAVKLREQEQKEEKLRLQQQEERRRLQEAELRRVEEEKERALGLQRKERELRERLLSILLSKKPDDSHTHDELGVAHADLLQPVLDILQTVSSGCVSATTLHPLGGQPPAGAPKESPAHPEADGAPKSVNGSVAEEAPCKEVQSSCRVVPEDGSPEKRCPGGVLSCIPDNNQQPKGIPACEQNVSRKDTRSEQDKCNREPSKGRGRATGDGLADRHKRERSRARRASSREDGRPRKERRPHKKHAYKDDSPRRRSTSPDHTRSRRSHSKDRHRRERSRERRGSASRKHSRHRRRSERSRSRSPSRHRSTWNR [AKAP17A] | -1.06 | 47 °C | 49.2 °C | 0.521 | – | –
8 | MAADVSVTHRPPLSPKSGAEVEAGDAAERRAPEEELPPLDPEEIRKRLEHTERQFRNRRKILIRGLPGDVTNQEVHDLLSDYELKYCFVDKYKGTAFVTLLNGEQAEAAINAFHQSRLRERELSVQLQPTDALLCVANLPPSLTQQQFEELVRPFGSLERCFLVYSERTGQSKGYGFAEYMKKDSAARAKSDLLGKPLGPRTLYVHWTDAGQLTPALLHSRCLCVDRLPPGFNDVDALCRALSAVHSPTFCQLACGQDGQLKGFAVLEYETAEMAEEAQQQADGLSLGGSHLRVSFCAPGPPGRSMLAALIAAQATALNRGKGLLPEPNILQLLNNLGPSASLQLLLNPLLHGSAGGKQGLLGAPPAMPLLNGPALSTALLQLALQTQGQKKPGILGDSPLGALQPGAQPANPLLGELPAGGGLPPELPPRRGKPPPLLPSVLGPAGGDREALGLGPPAAQLTPPPAPVGLRGSGLRGPLSHFYSGSPTSYFTSGLQAGLKQSHLSKAIGSSPLGSGEGLLGLSPGPNGHSHLLKVRAGGGDMQGWEAPAPQRPLTRPALPSVSRPHWAARNAALPTCCPRPSPAQKAAMWASTPRASAATTRTPT [RAVER1] | 0.344 | 46.3 °C | 48.9 °C | 0.165 | – | –
9 | MAALGRPFSGLPLSGGSDFLQPPQPAFPGRAFPPGADGAELAPRPGPRAVPSSPAGSAARGRVSVHCKKKHKREEEEDDDCPVRKKRITEAELCAGPNDWILCAHQDVEGHGVNPSVSGLSIPGILDVICEEMDQTTGEPQCEVARRKLQEIEDRIIDEDEEVEADRNVNHLPSLVLSDTMKTGLKREFDEVFTKKMIESMSRPSMELVLWKPLPELLSDKPKPSSNTKNYTGESQAKHVAAGTAFPQRTELFSEPRPTGMSLYNSLETATSTEEEMEL [CCDC117] | 0.515 | 51.6 °C | 53.2 °C | 0.183 | – | –
10 | MAAQPPRGIRLSALCPKFLHTNSTSHTWPFSAVAELIDNAYDPDVNAKQIWIDKTVINDHICLTFTDNGNGMTSDKLHKMLSFGFSDKVTMNGHVPVGLYGNGFKSGSMRLGKDAIVFTKNGESMSVGLLSQTYLEVIKAEHVVVPIVAFNKHRQMINLAESKASLAAILEHSLFSTEQKLLAELDAIIGKKGTRIIIWNLRSYKNATEFDFEKDKYDIRIPEDLDEITGKKGYKKQERMDQIAPESDYSLRAYCSILYLKPRMQIILRGQKVKTQLVSKSLAYIERDVYRPKFLSKTVRITFGFNCRNKDHYGIMMYHRNRLIKAYEKVGCQLRANNMGVGVVGIIECNFLKPTHNKQDFDYTNEYRLTITALGEKLNDYWNEMKVKKNTEYPLNLPVEDIQKRPDQTWVQCDACLKWRKLPDGMDQLPEKWYCSNNPDPQFRNCEVPEEPEDEDLVHPTYEKTYKKTNKEKFRIRQPEMIPRINAELLFRPTALSTPSFSSPKESVPRRHLSEGTNSYATRLLNNHQVPPQSEPESNSLKRRLSTRSSILNAKNRRLSSQFENSVYKGDDDDEDVIILEENSTPKPAVDHDIDMKSEQSHVEQGGVQVEFVGDSEPCGQTGSTSTSSSRCDQGNTAATQTEVPSLVVKKEETVEDEIDVRNDAVILPSCVEAEAKIHETQETTDKSADDAGCQLQELRNQLLLVTEEKENYKRQCHMFTDQIKVLQQRILEMNDKYVKKETCHQSTETDAVFLLESINGKSESPDHMVSQYQQALEEIERLKKQCSALQHVKAECSQCSNNESKSEMDEMAVQLDDVFRQLDKCSIERDQYKSEVELLEMEKSQIRSQCEELKTEVEQLKSTNQQTATDVSTSSNIEESVNHMDGESLKLRSLRVNVGQLLAMIVPDLDLQQVNYDVDVVDEILGQVVEQMSEISST [MORC3] | -0.0527 | 48.7 °C | 49.6 °C | -0.206 | – | –
11 | MTVEQNVLQQSAAQKHQQTFLNQLREITGINDTQILQQALKDSNGNLELAVAFLTAKNAKTPQQEETTYYQTALPGNDRYISVGSQADTNVIDLTGDDKDDLQRAIALSLAESNRAFRETGITDEEQAISRVLEASIAENKACLKRTPTEVWRDSRNPYDRKRQDKAPVGLKNVGNTCWFSAVIQSLFNLLEFRRLVLNYKPPSNAQDLPRNQKEHRNLPFMRELRYLFALLVGTKRKYVDPSRAVEILKDAFKSNDSQQQDVSEFTHKLLDWLEDAFQMKAEEETDEEKPKNPMVELFYGRFLAVGVLEGKKFENTEMFGQYPLQVNGFKDLHECLEAAMIEGEIESLHSENSGKSGQEHWFTELPPVLTFELSRFEFNQALGRPEKIHNKLEFPQVLYLDRYMHRNREITRIKREEIKRLKDYLTVLQQRLERYLSYGSGPKRFPLVDVLQYALEFASSKPVCTSPVDDIDASSPPSGSIPSQTLPSTTEQQGALSSELPSTSPSSVAAISSRSVIHKPFTQSRIPPDLPMHPAPRHITEEELSVLESCLHRWRTEIENDTRDLQESISRIHRTIELMYSDKSMIQVPYRLHAVLVHEGQANAGHYWAYIFDHRESRWMKYNDIAVTKSSWEELVRDSFGGYRNASAYCLMYINDKAQFLIQEEFNKETGQPLVGIETLPPDLRDFVEEDNQRFEKELEEWDAQLAQKALQEKLLASQKLRESETSVTTAQAAGDPEYLEQPSRSDFSKHLKEETIQIITKASHEHEDKSPETVLQSAIKLEYARLVKLAQEDTPPETDYRLHHVVVYFIQNQAPKKIIEKTLLEQFGDRNLSFDERCHNIMKVAQAKLEMIKPEEVNLEEYEEWHQDYRKFRETTMYLIIGLENFQRESYIDSLLFLICAYQNNKELLSKGLYRGHDEELISHYRRECLLKLNEQAAELFESGEDREVNNGLIIMNEFIVPFLPLLLVDEMEEKDILAVEDMRNRWCSYLGQEMEPHLQEKLTDFLPKLLDCSMEIKSFHEPPKLPSYSTHELCERFARIMLSLSRTPADGR [USP25] | 0.123 | – | – | -0.00837 | -0.404 | 0.0462
12 | MVQKYQSPVRVYKYPFELIMAAYERRFPTCPLIPMFVGSDTVNEFKSEDGAIHVIERRCKLDVDAPRLLKKIAGVDYVYFVQKNSLNSRERTLHIEAYNETFSNRVIINEHCCYTVHPENEDWTCFEQSASLDIKSFFGFESTVEKIAMKQYTSNIKKGKEIIEYYLRQLEEEGITFVPRWSPPSITTSSETSSSSSKKQAASMAVVIPEAALKEGLSGDALSSPSAPEPVVGTPDDKLDADYIKRYLGDLTPLQESCLIRLRQWLQETHKGKIPKDEHILRFLRARDFNIDKAREIMCQSLTWRKQHQVDYILETWTPPQVLQDYYAGGWHHHDKDGRPLYVLRLGQMDTKGLVRALGEEALLRYVLSINEEGLRRCEENTKVFGRPISSWTCLVDLEGLNMRHLWRPGVKALLRIIEVVEANYPETLGRLLILRAPRVFPVLWTLVSPFIDDNTRRKFLIYAGNDYQGPGGLLDYIDKEIIPDFLSGECMCEVPEGGLVPKSLYRTAEELENEDLKLWTETIYQSASVFKGAPHEILIQIVDASSVITWDFDVCKGDIVFNIYHSKRSPQPPKKDSLGAHSITSPGGNNVQLIDKVWQLGRDYSMVESPLICKEGESVQGSHVTRWPGFYILQWKFHSMPACAASSLPRVDDVLASLQVSSHKCKVMYYTEVIGSEDFRGSMTSLESSHSGFSQLSAATTSSSQSHSSSMISR [SEC14L1] | -0.0916 | – | – | -0.126 | -0.528 | 0.106
13 | MWKRSEQMKIKSGKCNMAAAMETEQLGVEIFETADCEENIESQDRPKLEPFYVERYSWSQLKKLLADTRKYHGYMMAKAPHDFMFVKRNDPDGPHSDRIYYLAMSGENRENTLFYSEIPKTINRAAVLMLSWKPLLDLFQATLDYGMYSREEELLRERKRIGTVGIASYDYHQGSGTFLFQAGSGIYHVKDGGPQGFTQQPLRPNLVETSCPNIRMDPKLCPADPDWIAFIHSNDIWISNIVTREERRLTYVHNELANMEEDARSAGVATFVLQEEFDRYSGYWWCPKAETTPSGGKILRILYEENDESEVEIIHVTSPMLETRRADSFRYPKTGTANPKVTFKMSEIMIDAEGRIIDVIDKELIQPFEILFEGVEYIARAGWTPEGKYAWSILLDRSQTRLQIVLISPELFIPVEDDVMERQRLIESVPDSVTPLIIYEETTDIWINIHDIFHVFPQSHEEEIEFIFASECKTGFRHLYKITSILKESKYKRSSGGLPAPSDFKCPIKEEIAITSGEWEVLGRHGSNIQVDEVRRLVYFEGTKDSPLEHHLYVVSYVNPGEVTRLTDRGYSHSCCISQHCDFFISKYSNQKNPHCVSLYKLSSPEDDPTCKTKEFWATILDSAGPLPDYTPPEIFSFESTTGFTLYGMLYKPHDLQPGKKYPTVLFIYGGPQVQLVNNRFKGVKYFRLNTLASLGYVVVVIDNRGSCHRGLKFEGAFKYKMGQIEIDDQVEGLQYLASRYDFIDLDRVGIHGWSYGGYLSLMALMQRSDIFRVAIAGAPVTLWIFYDTGYTERYMGHPDQNEQGYYLGSVAMQAEKFPSEPNRLLLLHGFLDENVHFAHTSILLSFLVRAGKPYDLQIYPQERHSIRVPESGEHYELHLLHYLQENLGSRIAALKVI [DPP8] | -0.288 | – | – | -0.0129 | -0.204 | 0.0056
14 | SOX13 | 0.191 | – | – | 0.0877 | 0.734 | 0.151
15 | TNS1 | -0.0779 | – | – | 0.117 | 0.323 | 1.79
16 | WWP2 | -0.136 | – | – | -0.0544 | 0.284 | -1.96

Reference: the supplement of paper PMC5998384
